B1: Serine/threonine-protein kinase Chk1 (Homo sapiens), O14757 (parent)
chain: MAVPFVEDWDLVQTLGEGAYGEVQLAVNRVTEEAVAVKIVDMKRAVDCPENIKKEICINKMLNHENVVKFYGHRREGNIQYLFLEYCSGGELFDRIEPDIGMPEPDAQRFFHQLMAGVVYLHGIGITHRDIKPENLLLDERDNLKISDFGLATVFRYNNRERLLNKMCGTLPYVAPELLKRREFHAEPVDVWSCGIVLTAMLAGELPWDQPSDSCQEYSDWKEKKTYLNPWKKIDSAPLALLHKILVENPSARITIPDIKKDRWYNKPLKKGAKRPRVTSGGVSESPSGFSKHIQSNLDFSPVNSASSEENVKYSSSQPEPRTGLSLWDTSPSYIDKLVQGISFSQPTCPDHMLLNSQLLGTPGSSQNPWQRLVKRMTRFFTKLDADKSYQCLKETCEKLGYQWKKSCMNQVTISTTDRRNNKLIFKVNLLEMDDKILVDFRLSKGDGLEFKRHFLKIKGKLIDIVSSQKIWLPAT
partner: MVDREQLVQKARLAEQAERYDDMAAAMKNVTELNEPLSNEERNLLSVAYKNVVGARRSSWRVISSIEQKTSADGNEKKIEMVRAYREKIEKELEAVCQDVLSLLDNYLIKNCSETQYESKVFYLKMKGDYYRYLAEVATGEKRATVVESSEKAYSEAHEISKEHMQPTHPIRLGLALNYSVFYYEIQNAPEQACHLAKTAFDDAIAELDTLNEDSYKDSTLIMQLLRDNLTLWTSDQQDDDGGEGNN

Variants of: B1
Conditions: with 1433g_human YWHAG

Row | effect of a mutation on the interaction | Variant
1 | disrupting interaction | MAVPFVEDWDLVQTLGEGAYGEVQLAVNRVTEEAVAVKIVDMKRAVDCPENIKKEICINKMLNHENVVKFYGHRREGNIQYLFLEYCSGGELFDRIEPDIGMPEPDAQRFFHQLMAGVVYLHGIGITHRDIKPENLLLDERDNLKISDFGLATVFRYNNRERLLNKMCGTLPYVAPELLKRREFHAEPVDVWSCGIVLTAMLAGELPWDQPSDSCQEYSDWKEKKTYLNPWKKIDSAPLALLHKILVENPSARITIPDIKKDRWYNKPLKKGAKRPRVTSGGVSESPSGFSKHIQANLDFSPVNSASSEENVKYSSSQPEPRTGLSLWDTSPSYIDKLVQGISFSQPTCPDHMLLNSQLLGTPGSSQNPWQRLVKRMTRFFTKLDADKSYQCLKETCEKLGYQWKKSCMNQVTISTTDRRNNKLIFKVNLLEMDDKILVDFRLSKGDGLEFKRHFLKIKGKLIDIVSSQKIWLPAT [S296A]

Variants of: B1
Conditions: with 1433g_human YWHAG
Remark: another data set of the same source

Row | effect of a mutation on the interaction | Variant
2 | disrupting interaction | MAVPFVEDWDLVQTLGEGAYGEVQLAVNRVTEEAVAVMIVDMKRAVDCPENIKKEICINKMLNHENVVKFYGHRREGNIQYLFLEYCSGGELFDRIEPDIGMPEPDAQRFFHQLMAGVVYLHGIGITHRDIKPENLLLDERDNLKISDFGLATVFRYNNRERLLNKMCGTLPYVAPELLKRREFHAEPVDVWSCGIVLTAMLAGELPWDQPSDSCQEYSDWKEKKTYLNPWKKIDSAPLALLHKILVENPSARITIPDIKKDRWYNKPLKKGAKRPRVTSGGVSESPSGFSKHIQSNLDFSPVNSASSEENVKYSSSQPEPRTGLSLWDTSPSYIDKLVQGISFSQPTCPDHMLLNSQLLGTPGSSQNPWQRLVKRMTRFFTKLDADKSYQCLKETCEKLGYQWKKSCMNQVTISTTDRRNNKLIFKVNLLEMDDKILVDFRLSKGDGLEFKRHFLKIKGKLIDIVSSQKIWLPAT [K38M]

From IntAct's records for PubMed 20639859
